Among the data in patent publication US7008781 are block of Ang1*-mediated Tie-2 receptor phosphorylation in EAhy926 cells values, retold here.

Some results are limits rather than exact numbers.

In the test the target is Tie-2 receptor in EAhy926 cells (UniProt Q02763). Put plainly: cell-based or functional assay. The conditions noted are these: scale: fold molar excess of Ang1*.
Sequence of UniProt Q02763 (Q02763 23-1124 limits assumed): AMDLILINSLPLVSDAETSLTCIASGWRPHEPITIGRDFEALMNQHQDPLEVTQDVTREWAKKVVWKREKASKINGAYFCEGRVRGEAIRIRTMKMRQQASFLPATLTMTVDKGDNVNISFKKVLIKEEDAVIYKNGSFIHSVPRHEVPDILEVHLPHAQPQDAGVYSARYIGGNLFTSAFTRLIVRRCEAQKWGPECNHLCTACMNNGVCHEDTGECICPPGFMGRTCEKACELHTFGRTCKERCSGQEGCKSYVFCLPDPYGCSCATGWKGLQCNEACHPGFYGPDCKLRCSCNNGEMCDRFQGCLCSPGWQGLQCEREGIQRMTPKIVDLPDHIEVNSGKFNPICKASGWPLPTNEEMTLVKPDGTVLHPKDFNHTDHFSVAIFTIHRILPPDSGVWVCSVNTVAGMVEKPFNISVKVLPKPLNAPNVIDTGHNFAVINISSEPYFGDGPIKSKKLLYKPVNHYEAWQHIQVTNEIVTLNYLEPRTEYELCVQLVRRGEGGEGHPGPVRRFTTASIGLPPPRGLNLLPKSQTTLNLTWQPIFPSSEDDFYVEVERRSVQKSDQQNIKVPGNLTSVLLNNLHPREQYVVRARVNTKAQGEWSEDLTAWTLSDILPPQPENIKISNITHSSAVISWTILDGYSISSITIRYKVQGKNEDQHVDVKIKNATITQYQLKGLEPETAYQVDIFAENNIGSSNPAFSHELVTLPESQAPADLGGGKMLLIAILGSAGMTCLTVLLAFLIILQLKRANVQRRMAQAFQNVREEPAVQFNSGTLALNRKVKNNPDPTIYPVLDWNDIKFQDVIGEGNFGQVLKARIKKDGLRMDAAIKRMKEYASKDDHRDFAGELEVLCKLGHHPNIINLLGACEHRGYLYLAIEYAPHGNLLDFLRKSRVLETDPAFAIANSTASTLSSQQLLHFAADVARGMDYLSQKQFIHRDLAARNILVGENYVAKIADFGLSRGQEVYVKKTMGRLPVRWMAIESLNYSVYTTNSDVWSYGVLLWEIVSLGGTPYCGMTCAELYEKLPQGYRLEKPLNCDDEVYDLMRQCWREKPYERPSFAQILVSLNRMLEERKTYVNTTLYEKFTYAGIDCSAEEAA

The substance “angiopoietin-2 (from UniProt O15123 19-496) (ligand)” yielded a block of Ang1*-mediated Tie-2 receptor phosphorylation in EAhy926 cells of more than 20.
